Experiment: label from the status in PepcDB records

Protein production, failed:
MCRVGLRAMVQERPVRVERRLSAILAADVAGYSRLMHNDEEATHAKLSALLTEAVQPAIAEHGGHIVKNTGDGFLAEFPSAVEAVRAAMQFQTSIHELTIGDVEDRRIAFRVGINIGDVIVEPHDIFGDGVNIAARLEGVAEPGGICISSSAYDQVQGKVGVEFGDLGEQNLKNIARPVRVYRMRPCNAATRPQASLLHRDTPQIGWFPNMFGGFPIRLWPALRARRARMALVIALLFVLSGGVAYWYMHQGEPQPLNHRLSIVVLPFTNLSNASEQEYFAEGITDDLSADLSRIEDSFVIAPSTARAYKNVDPKRVGRELGVRYILDGSLRRTDSLVRINARLIDARTGAEIWSERVDGDWSKSMQLQDIITGRLARRLDLELTNQESRDAEVMRPNNPDAVDLTMRGWAVLNQPYSREQLSQSRALFERALQIDPGFPKALVGLAETLAMEVNYRWTDAPADQLRRAESAVGQVLSKFPSDAMAHFVRGEIQRASGRNVEAAVGEYEAAIAINPSLAPAHGALGAAKIRVGRSAEAFAPLQMAIQLSPRDPLLSTWYFYIGHAHSHLGQYEGAIDWCGRSIAVQPLWIAYADLAAAHALTGHEREAYAAVAELRRLRPSYTVTEWLQDGKGWSDNAVFLAEFQRIADGLRKAGLPE
MCSFFKKKLCIFFFILGNVVGWSSCVWGHLGSQYTIIGQSVISHSIDEIIQKQQQIIKILEQEIKNLQKDFANESANEYALAKVRLRARDINKRAIEAAFVLRNPLNDINVLLDQLKELQDEPKNLKERSHLIKKKAQINNMVLQFEEIFLATNKIVELSLSQSRELFKRTFKNRLEFSIPMLKYSVEKMKEASSDFLFLFSSWCKFVFHFKFLQLFLSFLVPLFVALGLSYFSRKVLAHVNCYFTKGNEEISYLQRLLVAFISILLPLLVCVVCVYLVFFLFHSFGMELGKLTTIFYTVGHQIILVFLINRLALVLLSLNMVHVRLFNITPFVAHQLVILLTFLGGILAFDAVLDSIYQVVSASLSLTIAKSFIAVFLFAILLFIISFVPLRFRRKSSQNEERETHFLPLYIRIPFIVLGLLLIVMDSLGYVGLAHFIMQQIVIGGAFLVLMYLGIKSAQVIGTKGQFMKTSVGHALMQWFHLEEKTMNKLGIVISVVLNLIVVILCAMPIAVQFGFSYSDLRRVLLQVMTGFQIGNISVSLISIVIGIIAFFACWFLNRRFICWLDGMVLVHGEFDSGVRNSIKTVISYAGVVVSALIGLSMAGLDLKNFALIAGGLSLGIGFGLQNIVQNFVSGLIILIGRPFKLGDYVEAGSVGGIVKRISVRATELETFQRKTIIIPNSSLINNNVSNWTRGSKMGRVDIPIVVSPNVAPERVVEILLEIASTTEGVLKNPAPQVSFTAFDSKKFSFSLAVYVPNITSSFKVTNALHFVLYKRFVQEGILEC
MCTEFWNSFSNLFTGGRSTNRKIILVLLIMVLSSGVCSADNYVGGIPLTSAHSGTVSGGVYCDSYYGMGDQEAKASNTIEKTFTVPDNANVEWAMLLTNVYCGHMQNNYQGKAKVDFNGKNLGTETLNVPYTYSYNGGNGHVQVNDHVNRVTSDYMMYYDVTGLVKAGKNTAVVKTDPLDSSFDGRIRLVTLVVAYNDGSKKTIWYQVNRGHDADSYYSDDEMNENYIGSTAFQAALPEGSSLTDSKLTLVYQASSDGAYAFNGNALSSGTPQGTFSGSNTWDVKDSLKSSGTNTLTYDRTASFYKSVLGILTAEYTTSSSGDSTDDTPADNTTDNGSAGDTTDDISSDNTTNDTSSDNTTSDVPAGNTTNDTPADNTTDAKFSADLGVQAIKVSHNSAAKAWKNLVNTVNVTVINNGPEKAGSFALELYSEGSLLESKPINGLANGATEAVEFVWKPEDAKNYTLRAVVVPGSTINDANATNNELSKTQEVMHNGYIGDKPLETYLHGTVKGNIIYDYGNSSYVKVSSGDVYTAGHSLSLPEGAIVKYARLYNFWTWSATGSSGVIPSMSLDFAGSSLTPEAEYADQKGWGQYDYPTGTWAYNVTGLVSGSGNYITTVKNTNSDAENSFCIDGIALLVVYEDASGKETQYWINEGCDAVSTMSSSGGLTPDEATVKIAFAGDSIDLGNVDNARLWTTVQSGGHEGIALKFNEMSISGVYDSTPSSNLDIDEARDVTSYLLSQNNEAQIIAPSVTDNSGDYMIPSSAILAVSYKSETTDDTNITDDTNVTDDTNVTDGTNVTDDTNVTDGTNVTNDTNVTNDTNVTNDTNVTNDTNVTNDTNVTNDTNVTDDTNVTDGTNVTDGTNVTIDTNVTIDTNVTIDTNVTDNTNVTDDTNMKDDTNVTLKVNIIPVISLTVSPDSLDFGTVSPGTPSESLPLALKNNGGISIKVTAEVHDQENGPFATGLLLDQNIWSNYSKVLAAESAETSQAQLDLPLNYSSTGQFQGTLSLWAEAA
